Measured values: the supplement of paper PMC7877785
± gives the uncertainty stated by the source.

Assay: self-splicing fitness, log relative to wild type (ln ratio); higher = more splicing; Tetrahymena group I intron in knt gene, E. coli kanamycin selection, DiMSum; sequences stand for … in CUCUCU…GGAGGGAAAAGUUAUCAGGCAUGCACCUGGUAGCUAGUCUUUAAACCAAUAGAUUGCAUCGGUUUAAAAGGCAAGACCGUCAAAUUGCGGGAAAGGGGUCAACAGCCGUUCAGUACCAAGUCUCAGGGGAAACUUUGAGAUGGCCUUGCAAAGGGUAUGGUAAUAAGCUGACGGACAUGGUCCUAACCACGCAGCCAAGUCCUAAGUCAACAGAUCUUCUGUUGAUAUGGAUGCAGUUCACAGACUAAAUGUCGGUCGGGGAAGAUGUAUUCUUCUCAUAAGAUAUAGUCGGACCUCUCCUUAAUGGGAGCUAGCGGAUGAAGUGAUGCAACACUGGAGCCGCUGGGAACUAAUUUGUAUGCGAAAGUAUAUUGAUUAGUUUUGGAGUACUCGUGGUCG
Method in brief: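 Colonies from six replicate transformations of E. coli BL21(DE3) were pooled and amplicon-sequenced on an Illumina HiSeq 2500. The library placed an intron with all eight P1ex-region nucleotides randomised inside the knt kanamycin-resistance gene on pET-22b(+), and cells grew overnight at 37°C or 30°C on LB agar with or without 25 μg/mL kanamycin (plus 100 μg/mL carbenicillin, 50 μM IPTG, 0.2% rhamnose). Fitness is the DiMSum error-weighted combination of wild-type-normalised replicate fold changes, kanamycin versus none.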

| Sequence | self-splicing fitness (ln) (30 °C) | self-splicing fitness (ln) (37 °C) |
| --- | --- | --- |
| AGGUAGCAAUAUUACGUUGG | -3.813 ± 0.028 | -2.95 ± 0.041 |
| UACCAGCAAUAUUACGUGUC | -2.04 ± 0.1 | -2.23 ± 0.15 |
| AGAUAGCAAUAUUACGGAAG | -3.57 ± 0.22 | -2.02 ± 0.19 |
| UAUCAGCAAUAUUACGUGUA | -0.198 ± 0.069 | 0.204 ± 0.079 |
| AAUUAGCAAUAUUACGGUAU | -1.29 ± 0.097 | -0.598 ± 0.11 |
| UAGCAGCAAUAUUACGUGUG | -1.63 ± 0.064 | -0.7 ± 0.08 |
| UCCUAGCAAUAUUACGAGUC | -2.71 ± 0.31 | – |
| AAGGAGCAAUAUUACGGGUU | -2.46 ± 0.23 | -2.16 ± 0.28 |
| AGAAAGCAAUAUUACGACUU | -0.252 ± 0.072 | 0.222 ± 0.1 |
| GAUAAGCAAUAUUACGGUUA | -0.72 ± 0.12 | 0.108 ± 0.11 |
| AGAGAGCAAUAUUACGGAUU | -2.87 ± 0.2 | -2.57 ± 0.34 |
| UAAGAGCAAUAUUACGCUUC | -3.71 ± 0.25 | -2.46 ± 0.25 |
| UUGGAGCAAUAUUACGUUGA | -3.57 ± 0.3 | -0.895 ± 0.26 |
| UACGAGCAAUAUUACGGUAC | -3.89 ± 0.3 | -2.76 ± 0.34 |
| ACCAAGCAAUAUUACGAAGA | -4.11 ± 0.24 | -1.56 ± 0.14 |
| CGCUAGCAAUAUUACGGCAC | -1.9 ± 0.18 | 0.16 ± 0.19 |
| UGAAAGCAAUAUUACGUACA | -0.776 ± 0.044 | 0.0429 ± 0.066 |
| ACUGAGCAAUAUUACGGACA | -2.8 ± 0.22 | -2.27 ± 0.17 |
| GUCCAGCAAUAUUACGAUUA | -0.767 ± 0.074 | -0.551 ± 0.077 |
| GAGUAGCAAUAUUACGGGCG | -1.89 ± 0.12 | -0.779 ± 0.12 |
| AUAGAGCAAUAUUACGUGAG | -3.77 ± 0.21 | -2.42 ± 0.14 |
| CGUGAGCAAUAUUACGUCAU | -2.46 ± 0.21 | -2.81 ± 0.24 |

| Sequence | self-splicing fitness (ln) (30 °C) | self-splicing fitness (ln) (37 °C) |
| --- | --- | --- |
| AGACAGCAAUAUUACGGCUC | -2.59 ± 0.15 | -1.02 ± 0.13 |
| CUGAAGCAAUAUUACGCCUU | -4.07 ± 0.33 | -2.33 ± 0.31 |
| AAGCAGCAAUAUUACGCGAU | -3.31 ± 0.18 | -3.25 ± 0.18 |
| CUCUAGCAAUAUUACGCAAG | -3.98 ± 0.27 | -1.95 ± 0.2 |
| ACCAAGCAAUAUUACGGCUC | -2.09 ± 0.07 | -0.63 ± 0.084 |
| CCCGAGCAAUAUUACGGUAU | -3.43 ± 0.22 | -3.01 ± 0.4 |
| GACAAGCAAUAUUACGUUCA | -1.21 ± 0.074 | -0.263 ± 0.072 |
| AUUUAGCAAUAUUACGUUCU | -0.544 ± 0.085 | -0.0441 ± 0.12 |
| ACGAAGCAAUAUUACGUGAC | -3.87 ± 0.26 | -1.12 ± 0.17 |
| GGAGAGCAAUAUUACGCAAG | – | -3.71 ± 0.46 |
| CGAAAGCAAUAUUACGAUCA | -0.312 ± 0.1 | 0.699 ± 0.13 |
| CACAAGCAAUAUUACGGUUU | -3.34 ± 0.14 | -2.59 ± 0.19 |
| CCAAAGCAAUAUUACGAAUU | -3.58 ± 0.15 | -3.46 ± 0.19 |
| UUGAAGCAAUAUUACGACAA | 0.222 ± 0.087 | 0.511 ± 0.12 |
| CAAGAGCAAUAUUACGCGGC | -3.74 ± 0.31 | -3.52 ± 0.28 |
| AGUAAGCAAUAUUACGCGCU | -2.64 ± 0.28 | -2.1 ± 0.4 |
| GGCAAGCAAUAUUACGCUAA | -0.671 ± 0.089 | 0.1 ± 0.12 |
| CAACAGCAAUAUUACGAAUU | -4.19 ± 0.26 | -1.84 ± 0.12 |
| GUCUAGCAAUAUUACGAUAG | – | -2.96 ± 0.27 |
| UUAUAGCAAUAUUACGAGAU | -3.27 ± 0.31 | -3.38 ± 0.39 |
| AGUGAGCAAUAUUACGGGGA | -3.7 ± 0.25 | -2 ± 0.21 |
